From ChEMBL document CHEMBL3600307, “Synthesis, kinetic mechanism and docking studies of vanillin derivatives as inhibitors of mushroom tyrosinase” (Bioorg Med Chem, 2015)
Activity calls are given as the source filed them. No cut-off for these calls is given here.

Assays:
[1] = biological target: T1, Tyrosinase (Agaricus bisporus, UniProt O42713)
T1 sequence (O42713 whole entry): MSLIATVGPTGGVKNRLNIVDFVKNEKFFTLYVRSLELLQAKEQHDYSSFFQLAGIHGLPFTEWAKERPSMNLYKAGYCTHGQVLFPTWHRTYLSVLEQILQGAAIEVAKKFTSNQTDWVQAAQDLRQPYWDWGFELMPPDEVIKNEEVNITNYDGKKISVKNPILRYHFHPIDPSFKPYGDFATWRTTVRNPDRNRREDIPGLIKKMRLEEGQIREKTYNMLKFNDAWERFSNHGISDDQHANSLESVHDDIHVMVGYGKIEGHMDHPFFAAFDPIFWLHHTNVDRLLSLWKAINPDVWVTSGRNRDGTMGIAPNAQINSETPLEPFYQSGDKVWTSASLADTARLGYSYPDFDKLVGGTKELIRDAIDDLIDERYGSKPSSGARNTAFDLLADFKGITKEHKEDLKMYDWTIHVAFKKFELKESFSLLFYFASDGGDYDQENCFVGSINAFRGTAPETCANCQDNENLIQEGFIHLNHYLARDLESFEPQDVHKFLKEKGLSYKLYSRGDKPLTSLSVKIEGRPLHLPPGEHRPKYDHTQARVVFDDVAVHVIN

[2] = biological target: T2, Tyrosinase (Agaricus bisporus) (UniProt O42713); test: Reversible inhibition of mushroom tyrosinase using L-DOPA as substrate at 10.6 to 342 uM
T2 sequence (whole entry): T1 sequence (O42713 whole entry)

[3] = biological target: T1, Tyrosinase; remark: listed apart in the source
[4] = biological target: T1, Tyrosinase; remark: listed apart in the source
[5] = test system: HaCaT; test: Cytotoxicity against human HaCaT cells assessed as decrease in cell viability after 24 hrs by MTT assay; format: cell-based
[6] = test system: L929; test: Cytotoxicity against mouse L929 cells assessed as decrease in cell viability after 24 hrs by MTT assay; format: cell-based; conditions: l929, 24 h
[7] = biological target: T2, Tyrosinase (Agaricus bisporus); conditions: 8.75 to 140 uM
[8] = compound: COc1cc(C=O)ccc1OC(=O)CN1CCN(C)CC1; test: Non competitive inhibition of mushroom tyrosinase using L-DOPA as substrate assessed as enzyme Km at 42.75 uM preincubated for 10 mins followed by substrate addition measured after 20 mins by Lineweaver-Burk plot analysis (reference value: […] to […] mM); conditions: Agaricus bisporus
[9] = compound: COc1cc(C=O)ccc1OC(=O)CN1CCN(C)CC1; test: Non competitive inhibition of mushroom tyrosinase using L-DOPA as substrate assessed as enzyme Vmax at 21.37 uM preincubated for 10 mins followed by substrate addition measured after 20 mins by Lineweaver-Burk plot analysis (reference value: […] x 10^-4 to 2.66 x 10^-4 deltaA/s); conditions: Agaricus bisporus
[10] = compound: COc1cc(C=O)ccc1OC(=O)CN1CCN(C)CC1; test: Non competitive inhibition of mushroom tyrosinase using L-DOPA as substrate assessed as enzyme Vmax at 342 uM preincubated for 10 mins followed by substrate addition measured after 20 mins by Lineweaver-Burk plot analysis (reference value: […] x 10^-4 to 2.66 x 10^-4 deltaA/s); conditions: Agaricus bisporus
[11] = substrate: COc1cc(C=O)ccc1OC(=O)COC(=O)/C=C/c1ccc(Cl)cc1; conditions: Agaricus bisporus; 8.3 uM
[12] = compound: COc1cc(C=O)ccc1OC(=O)CN1CCN(C)CC1; test: Non competitive inhibition of mushroom tyrosinase using L-DOPA as substrate assessed as enzyme Km at 21.37 uM preincubated for 10 mins followed by substrate addition measured after 20 mins by Lineweaver-Burk plot analysis (reference value: […] to […] mM); conditions: Agaricus bisporus
[13] = substrate: COc1cc(C=O)ccc1OC(=O)COC(=O)/C=C/c1ccc(O)cc1; conditions: Agaricus bisporus; 8.75 uM
[14] = substrate: COc1cc(C=O)ccc1OC(=O)COC(=O)c1ccc(O)cc1O; conditions: Agaricus bisporus; 144.5 uM
[15] = substrate: COc1cc(C=O)ccc1OC(=O)COC(=O)/C=C/c1ccc(Cl)cc1; conditions: Agaricus bisporus; 33.3 uM
[16] = compound: COc1cc(C=O)ccc1OC(=O)CN1CCN(C)CC1; test: Non competitive inhibition of mushroom tyrosinase using L-DOPA as substrate assessed as enzyme Km at 10.68 uM preincubated for 10 mins followed by substrate addition measured after 20 mins by Lineweaver-Burk plot analysis (reference value: […] to […] mM); conditions: Agaricus bisporus
[17] = substrate: COc1cc(C=O)ccc1OC(=O)COC(=O)c1ccc(O)cc1O; conditions: Agaricus bisporus; 289 uM
[18] = substrate: COc1cc(C=O)ccc1OC(=O)COC(=O)c1ccc(O)cc1O; conditions: Agaricus bisporus; 72.2 uM
[19] = substrate: COc1cc(C=O)ccc1OC(=O)COC(=O)/C=C/c1ccc(Cl)cc1; conditions: Agaricus bisporus; 8.3 uM; remark: listed apart in the source
[20] = substrate: COc1cc(C=O)ccc1OC(=O)COC(=O)c1ccc(O)cc1O; conditions: Agaricus bisporus; 144.5 uM; remark: listed apart in the source
[21] = substrate: COc1cc(C=O)ccc1OC(=O)COC(=O)/C=C/c1ccc(O)cc1; conditions: Agaricus bisporus; 8.75 uM; remark: listed apart in the source
[22] = compound: COc1cc(C=O)ccc1OC(=O)CN1CCN(C)CC1; test: Non competitive inhibition of mushroom tyrosinase using L-DOPA as substrate assessed as enzyme Vmax at 42.75 uM preincubated for 10 mins followed by substrate addition measured after 20 mins by Lineweaver-Burk plot analysis (reference value: […] x 10^-4 to 2.66 x 10^-4 deltaA/s); conditions: Agaricus bisporus
[23] = compound: COc1cc(C=O)ccc1OC(=O)CN1CCN(C)CC1; test: Non competitive inhibition of mushroom tyrosinase using L-DOPA as substrate assessed as enzyme Km at 85.5 uM preincubated for 10 mins followed by substrate addition measured after 20 mins by Lineweaver-Burk plot analysis (reference value: […] to […] mM); conditions: Agaricus bisporus
[24] = compound: COc1cc(C=O)ccc1OC(=O)CN1CCN(C)CC1; test: Non competitive inhibition of mushroom tyrosinase using L-DOPA as substrate assessed as enzyme Km at 342 uM preincubated for 10 mins followed by substrate addition measured after 20 mins by Lineweaver-Burk plot analysis (reference value: […] to […] mM); conditions: Agaricus bisporus
[25] = compound: COc1cc(C=O)ccc1OC(=O)CN1CCN(C)CC1; test: Non competitive inhibition of mushroom tyrosinase using L-DOPA as substrate assessed as enzyme Vmax at 10.68 uM preincubated for 10 mins followed by substrate addition measured after 20 mins by Lineweaver-Burk plot analysis (reference value: […] x 10^-4 to 2.66 x 10^-4 deltaA/s); conditions: Agaricus bisporus
[26] = substrate: COc1cc(C=O)ccc1OC(=O)COC(=O)/C=C/c1ccc(Cl)cc1; conditions: Agaricus bisporus; 16.6 uM
[27] = substrate: COc1cc(C=O)ccc1OC(=O)COC(=O)c1ccc(O)cc1O; conditions: Agaricus bisporus; 289 uM; remark: listed apart in the source
[28] = substrate: COc1cc(C=O)ccc1OC(=O)COC(=O)c1ccc(O)cc1O; conditions: Agaricus bisporus; 72.2 uM; remark: listed apart in the source
[29] = substrate: COc1cc(C=O)ccc1OC(=O)COC(=O)/C=C/c1ccc(Cl)cc1; conditions: Agaricus bisporus; 16.6 uM; remark: listed apart in the source
[30] = substrate: COc1cc(C=O)ccc1OC(=O)COC(=O)/C=C/c1ccc(O)cc1; conditions: Agaricus bisporus; 17.5 uM
[31] = substrate: COc1cc(C=O)ccc1OC(=O)COC(=O)/C=C/c1ccc(O)cc1; conditions: Agaricus bisporus; 17.5 uM; remark: listed apart in the source
[32] = compound: COc1cc(C=O)ccc1OC(=O)CN1CCN(C)CC1; test: Non competitive inhibition of mushroom tyrosinase using L-DOPA as substrate assessed as enzyme Vmax at 85.5 uM preincubated for 10 mins followed by substrate addition measured after 20 mins by Lineweaver-Burk plot analysis (reference value: […] x 10^-4 to 2.66 x 10^-4 deltaA/s); conditions: Agaricus bisporus

Molecule: COc1cc(C=O)ccc1OC(=O)CN1CCN(C)CC1
- Ki [1]: 60 µM
- inhibition [2]: Active
- IC50 [3]: 21.6 µM

Molecule: COc1cc(C=O)ccc1OC(=O)COC(=O)c1ccc(O)c(O)c1
- IC50 [3]: 157 µM

Molecule: COc1cc(C=O)ccc1OC(=O)COC(=O)c1ccc(O)cc1O
- Ki [1]: 65 µM
- Ki [4]: 205 µM
- IC50 [3]: 42.6 µM

Molecule: COc1cc(C=O)ccc1OC(=O)COC(=O)c1cc(O)cc(O)c1
- IC50 [3]: 59.8 µM

Molecule: COc1cc(C=O)ccc1OC(=O)CN1CCN(c2ccccc2)CC1
- IC50 [3]: 101 µM

Molecule: COc1cc(C=O)ccc1OC(=O)COC(=O)c1ccc(O)cc1
- IC50 [3]: 201 µM

Molecule: COc1cc(C=O)ccc1OC(=O)COC(=O)/C=C/c1ccc(O)cc1
- Ki [1]: 13 µM
- Activity [5]: Dose-dependent effect
- Activity [6]: Dose-dependent effect
- Ki [4]: 53 µM
- IC50 [3]: 16.1 µM
- inhibition [7]: Active

Molecule: COc1cc(C=O)ccc1OC(=O)COC(=O)/C=C/c1ccc(Cl)cc1
- Ki [1]: 41 µM
- Ki [4]: 100 µM
- IC50 [3]: 30.9 µM

Molecule: COc1cc(C=O)ccc1OC(=O)CCl
- IC50 [3]: 78.9 µM

B1: Tyrosinase (Agaricus bisporus), O42713 (protein)
chain: T1 sequence (O42713 whole entry)
- Km [8]: 400 µM
- Vmax (10'-4deltaA/s) [9]: 1.42
- Vmax (10'-5deltaA/s) [10]: 2.85
- Km [11]: 900 µM
- Km [12]: 400 µM
- Vmax (10'-4deltaA/s) [13]: 2.22
- Vmax (10'-4deltaA/s) [14]: 1.53
- Vmax (10'-4deltaA/s) [15]: 1.85
- Km [16]: 400 µM
- Vmax (10'-4deltaA/s) [17]: 1.05
- Vmax (10'-4deltaA/s) [18]: 2
- Vmax (10'-4deltaA/s) [19]: 2.22
- Km [20]: 1000 µM
- Km [21]: 1330 µM
- Vmax (10'-4deltaA/s) [22]: 1.17
- Km [23]: 400 µM
- Km [24]: 400 µM
- Vmax (10'-4deltaA/s) [25]: 1.66
- Km [26]: 1000 µM
- Km [27]: 1250 µM
- Km [28]: 830 µM
- Vmax (10'-4deltaA/s) [29]: 1.96
- Vmax (10'-4deltaA/s) [30]: 2
- Km [31]: 1530 µM
- Vmax (10'-5deltaA/s) [32]: 7.14
